In article doi:10.1101/2024.09.12.612748, “Analysis of polyclonal and monoclonal antibody to the influenza virus nucleoprotein in different oligomeric states” (bioRxiv, 2024) one finds binding result and Kd data, which are given here for one molecule.

For assay [1], the target named is T1, recombinant NP of influenza A/PR/8/34 (H1N1) purified from bacteria (Influenza A virus (strain A/Puerto …, UniProt P03466)).
T1 construct: source: E. coli Rosetta 2 (DE3), purified (His GraviTrap TALON)
The experiment in a line: immunoblot. Conditions: both partners purified.

The target in assay [2] is T2, NP in H1N1 viral lysate (A/Puerto Rico/8/34) (Influenza A virus (strain A/Puerto …, UniProt P03466)).
T2 construct: also called viral NP; NP from lysed influenza virus
The experiment in a line: immunoblot. Conditions: one partner purified. Background: A western blot detects proteins with antibodies after separation by electrophoresis.

The target of assay [3] is T3, recombinant nucleoprotein (NP) from influenza A/Brisbane/10/2007 (H3N2) (Influenza A virus A/Brisbane/10/2007 …).
T3 construct: also called rNP; rNP-A
The experiment in a line: BLI; Octet Red 96; […] (AMC) […] (6.25–200 nM), 1X PBS, association 300 s, dissociation 3,600 s, global 1:1 fit. The conditions noted are these: both partners purified.

B1: anti-NP mouse monoclonal antibody HB65 (antibody, V domains shown)
VH: EVKLVESGGALVNPGGSLKLSCAASGFIFSSYAMSWIRQTPEKRLEWVASTSGGGTTYYLDSVRGRFTISRDNARRILYLQMTSLRSEDTAIYFCGRDGNWFTSWGQGTLVTVSI
VL: NIVMTQSPKSMSMSVGERVTLTCKASENVVTYVSWYQQKPEQSPKLLIYGASNRYTGVPDRFTGSGSATDFTLTISSVQAEDLADYHCGQGYSYPYTFGGGTKLEIK
notes: also called mAb HB65; IgG HB65; copies: 2 + 2
The Kd is the free concentration of one partner at which half of the binding sites on the other are occupied at equilibrium, for simple one-to-one binding. As for B1, the binding result in assay [1] and in assay [2] was “binds” throughout. Further, the dissociation constant Kd in assay [3] turned out to be 120 ± 21 nM.
